First the molecules themselves.
B1: 002-D03 (antibody, human IgG4 S228P, lambda, V domains shown)
VH: EVQLLESGGGLVQPGGSLRLSCAASGFTFRSNYMSWVRQAPGKGLEWVSYISSSSTYTDYADSVKGRFTISRDNSKNTLYLQMNSLRAEDTAVYYCARYSYGRDNFDYWGQGTLVTVSS
VL: QSVLTQPPSASGTPGQRVTISCTGSTSNIGAGYDTHWYQQLPGTAPKLLIYGNSNRPSGVPDRFSGSKSGTSASLAISGLRSEDEADYYCQSYDTNLSVWVFGGGTKLTVLG
notes: IgG4 S228P
B2: 001-B06 (antibody, human IgG4 S228P, lambda, V domains shown)
VH: B1 VH with R30S, N105T
VL: B1 VL with P8F, S82P, N96S
notes: IgG4 S228P
B3: 002-D10 (antibody, human IgG4 S228P, lambda, V domains shown)
VH: B1 VH with R30S, L45P
VL: B1 VL with P8S, I77V, D87E, V99G
notes: IgG4 S228P
B4: 002-H02 (antibody, human IgG4 S228P, lambda, V domains shown)
VH: B1 VH with R30S, N105S
VL: B1 VL with P8S, D34G
notes: IgG4 S228P
B5: 002-H03 (antibody, human IgG4 S228P, lambda, V domains shown)
VH: B1 VH with R30S
VL: B1 VL with P8S, L48P, V99A
notes: IgG4 S228P
B6: 002-C09 (antibody, human IgG4 S228P, lambda, V domains shown)
VH: B1 VH with R30S
VL: B1 VL with P8A, D34G, Q40R, V99G
notes: IgG4 S228P
B7: 002-D08 (antibody, human IgG4 S228P, lambda, V domains shown)
VH: B1 VH with A24T, T28P, R30S, T58S, T69S
VL: B1 VL with P8S, D34A
notes: IgG4 S228P
B8: 002-B07 (antibody, human IgG4 S228P, lambda, V domains shown)
VH: B1 VH with R30S
VL: B1 VL with P8S, V99G
notes: IgG4 S228P

Residue numbers refer to the chain shown, from its start. Names may count otherwise.

The values below come from US20150139990A1 (DAINIPPON SUMITOMO PHARMA, published 2015).

The first test concerns the target T1, human CD81 mutant D137A (human, UniProt P60033 1-236, limits assumed).
T1 construct: as m30; not shown: C-terminal V5 and 6xHis tags
T1 sequence: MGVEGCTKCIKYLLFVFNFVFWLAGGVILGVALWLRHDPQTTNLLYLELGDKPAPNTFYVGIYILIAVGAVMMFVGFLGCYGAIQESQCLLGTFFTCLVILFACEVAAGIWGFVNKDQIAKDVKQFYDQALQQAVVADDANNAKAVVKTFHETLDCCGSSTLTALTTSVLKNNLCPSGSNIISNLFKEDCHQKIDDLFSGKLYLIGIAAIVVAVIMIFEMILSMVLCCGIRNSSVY
As to the kind of experiment: ELISA. For orientation: ELISA stands for enzyme-linked immunosorbent assay.
Take B1: the relative binding affinity is less than 20%.

The target in the next test is T2, human CD81 mutant V169A (human, UniProt P60033 1-236, limits assumed).
T2 construct: as m30; not shown: C-terminal V5 and 6xHis tags
T2 sequence: T1 sequence with A137D, V169A
Nature of the test: ELISA.
B2 returned a relative binding affinity of less than 20%.
Same read-out and setting: next, B3: less than 20%.
On the same count and under the same terms, the same measure for B4: less than 20%; for B5: less than 20%; for B6: less than 20%.
Turning to B7, the relative binding affinity was less than 20%.
Same read-out and setting: next, B8: less than 20%; B1: less than 20%.

The target in a further test is T3, human CD81 mutant L165A (human, UniProt P60033 1-236, limits assumed).
T3 construct: as m30; not shown: C-terminal V5 and 6xHis tags
T3 sequence: T1 sequence with A137D, L165A
Nature of the test: ELISA.
In turn, B3 yielded a relative binding affinity of less than 20%.
For the molecule B4, the relative binding affinity is less than 20%.
In turn, B5 showed a relative binding affinity of less than 20%.
On the same count and under the same terms, the same measure for B6: less than 20%; for B7: less than 20%; for B8: less than 20%.
The same measure, in the same setting: the same measure for B1: less than 20%.

Another test deals with T4, human CD81 mutant A164T (human, UniProt P60033 1-236, limits assumed).
T4 construct: as m30; not shown: C-terminal V5 and 6xHis tags
T4 sequence: T1 sequence with A137D, A164T
As to the kind of experiment: ELISA.
With B3, the relative binding affinity was less than 20%.
Same read-out and setting: the same measure for B4: less than 20%; for B5: less than 20%; for B6: less than 20%.
For B7, the relative binding affinity is less than 20%.
Same read-out and setting: next, B8: less than 20%.
The same measure, in the same setting: the same measure for B1: less than 20%.

The target of another test is T5, human CD81 mutant V135A (human, UniProt P60033 1-236, limits assumed).
T5 construct: as m30; not shown: C-terminal V5 and 6xHis tags
T5 sequence: T1 sequence with V135A, A137D
As to the kind of experiment: ELISA.
Take B3: the relative binding affinity was less than 20%.
Same read-out and setting: next, B4: less than 20%.
Still for that read-out and setting: next, B5: less than 20%; B6: less than 20%; B7: less than 20%.
On the same count and under the same terms, the same measure for B8: less than 20%.
In the case of B1, the relative binding affinity is less than 20%.

For another test, the target named is T6, human CD81 on CD81-expressing cells (Jurkat E6.1, human PBMC, Ramos) (human, UniProt P60033 1-236).
T6 sequence: T1 sequence with A137D
As to the kind of experiment: cell-based or functional assay.
As for B2, the “Jurkat chemotaxis (% of control IgG4) at 0.001 µg/mL” value worked out at 102%, the “Jurkat chemotaxis (% of control IgG4) at 0.01 µg/mL” value was 91%, the “Jurkat chemotaxis (% of control IgG4) at 0.1 µg/mL” value came to 35% and the “Jurkat chemotaxis (% of control IgG4) at 1 µg/mL” value came out at 3%. Moreover, the “Jurkat chemotaxis (% of control IgG4) at 10 µg/mL” value was 3%.
For B3, the “Jurkat chemotaxis (% of control IgG4) at 0.001 µg/mL” value is 97%, the “Jurkat chemotaxis (% of control IgG4) at 0.01 µg/mL” value was 87%, the “Jurkat chemotaxis (% of control IgG4) at 0.1 µg/mL” value came out at 34% and the “Jurkat chemotaxis (% of control IgG4) at 1 µg/mL” value is 6%. For the same molecule, the “Jurkat chemotaxis (% of control IgG4) at 10 µg/mL” value worked out at 10%.
Taken in the same sequence, the figures for B4 were 87%, 85%, -1%, -10% and -2%.
Taken in the same sequence, the figures for B5 were 106%, 89%, 13%, 0% and -3%.
Taken in the same sequence, the figures for B6 were 101%, 82%, 15%, -1% and 11%.
Consider B7, for which the “Jurkat chemotaxis (% of control IgG4) at 0.001 µg/mL” value was 101%, the “Jurkat chemotaxis (% of control IgG4) at 0.01 µg/mL” value is 105%, the “Jurkat chemotaxis (% of control IgG4) at 0.1 µg/mL” value was 67% and the “Jurkat chemotaxis (% of control IgG4) at 1 µg/mL” value came out at 19%. Moreover, the “Jurkat chemotaxis (% of control IgG4) at 10 µg/mL” value turned out to be 14%.
Taken in the same sequence, the figures for B8 were 92%, 87%, 8%, 4% and -9%.
In the same order, the values of B1 are 105%, 91%, 25%, 14% and 16%.

The target of the next test is T7, human CD81 mutant V169L (human, UniProt P60033 1-236, limits assumed).
T7 construct: as m30; not shown: C-terminal V5 and 6xHis tags
T7 sequence: T1 sequence with A137D, V169L
As to the kind of experiment: ELISA.
With B3, the relative binding affinity was less than 20%.
In turn, B4 registered a relative binding affinity of less than 20%.
For the molecule B6, the relative binding affinity was less than 20%.
The molecule B8 gave a relative binding affinity of less than 20%.
For B1, the relative binding affinity is less than 20%.

For the next test, the target named is T8, human CD81 mutant A164V (human, UniProt P60033 1-236, limits assumed).
T8 construct: as m30; not shown: C-terminal V5 and 6xHis tags
T8 sequence: T1 sequence with A137D, A164V
Nature of the test: ELISA.
For the molecule B3, the relative binding affinity was less than 20%.
On the same count and under the same terms, the same measure for B4: less than 20%; for B5: less than 20%; for B6: less than 20%.
On the same count and under the same terms, the same measure for B7: less than 20%; for B8: less than 20%.
The same measure, in the same setting: the same measure for B1: less than 20%.
